# Reference: patent US20240043563A1 (SHANGHAI MABGEEK BIOTECH, published 2024)
# Where a chain is given by its changes, count along the chain named.
# B1: humanized anti-human MASP-2 monoclonal antibody 126-Hu (antibody, human IgG4 S228P, kappa, V domains shown)
# VH: QVQLVESGGGVVQPGRSLRLSCAASGFTFSSFGMHWVRQAPGKGLEWVAYISSGSSSSFYVDTVKGRFTISRDNSKNTLYLQMNSLRAEDTAVYYCARGDRNFEVWGQGTTVTVSS
# VL: DIQMTQSPSSLSASVGDRVTITCRASQSVSSSRYSYMHWFQQKPGKAPKLLIYHASNLESGVPSRFSGSGSGTDFTLTISSLQPEDFATYYCQQSWEVPWTFGQGTKLEIKR
# B2: humanized anti-human MASP-2 monoclonal antibody 124-Hu (antibody, human IgG4 S228P, kappa, V domains shown)
# VH: QVQLQESGPGLVKPSQTLSLTCTVSGYSITSDYAWNWIRQPPGKGLEWMGYISYSGRTSYNPSLKSRLTISRDTSKNQFSLKLSSVTAADTAVYYCARHYGDFWGQGTTVTVSS
# VL: DIQMTQSPSSLSASVGDRVTITCKASQNVDTNVAWYQQKPGKAPKLLIYSASYRYSGVPSRFSGSGSGTDFTLTISSLQPEDFATYYCQQYNSYPSTFGQGTKLEIKR
# B3: murine anti-human MASP-2 monoclonal antibody 120 (antibody, V domains shown)
# VH: DVQLQESGPGLVKPSQSLSLTCTVTGYSITSDYAWSWIRQFLRNKLEWMGYISYSGRTSYNPSLKSRISITRDTSKNQFFLQLNSVTTEDTATYFCARLITGGDYWGQGTSVTVSS
# VL: DIVMTQSQKFMSTSVGDRVSVTCKASQNVGINVVWYQQKPGQSPKALIYSASYRFSGVPDRFTGSGSGTDFTLTISNVQSEDLAEYLCLQYDINPLTFGAGTKLELK
# notes: Murine monoclonal antibody purified from hybridoma by Protein G
# B4: murine anti-human MASP-2 monoclonal antibody 60 (antibody, V domains shown)
# VH: QVQLQQSGAELMKPGASVKISCKATGYPFSTYWIEWVKQRPGHGLEWIGEILPGSDNTNYNEKFKGKATFTADTSSNTAYMQLSSLTSEDSAVYYCARRTTATRAWFVYWGQGTLVTVSA
# VL: DIVMSQSPSSLAVSVGEKVTMSCKSSQSLLYSSNQKNYLAWYQQKPGQSPKLLIYWASTRESGVPDRFTGSGSGTDFTLTISSVRAEDLAVYYCQHYYTYPWTFGGGTNLEIK
# notes: as for B3
# B5: murine anti-human MASP-2 monoclonal antibody 136 (antibody, V domains shown)
# VH: QVQLQQSGAELAKPGASVKMSCKASGNTFTNYWMHWIKQRPGQGLEWVGYINPNTGYTDFNQKFKDKATLTADKSSTTAYMQLISLTSEDSTVYYCTLQLGRNFDYWGQGTTLTVSS
# VL: DIVLTQSPASLGVSLGQRATISCRASQSVSSSRSTYIHWYQQKPGQPPKLLIKYSSNLESGVPARFSGGGSGTDFTLNIHPVEAEDTATYYCHQSWEIPYTFGGGTKLEIR
# B6: murine anti-human MASP-2 monoclonal antibody 115 (antibody, V domains shown)
# VH: DVQLVESGGGLVQPGGSRKLSCAASGFTFSSFGMHWVRQAPEKGLEWVAYISSGSSSFFYADTVKGRFTISRDNPKNTLFLQMTSLRSEDTAMYYCARGDRNFDVWGAGTTVTVSS
# VL: DIVLTQSPASLAVSLGQRATISCRASQSVTSSRYSYMHWFQQKPGQPPNLLIKHASNLESGVPARFSGSGSGTDFTLNIHPVEEDDTATYYCQHSWEVPWTFGGGTKLEIK
# B7: murine anti-human MASP-2 monoclonal antibody 126 (antibody, V domains shown)
# VH: B6 VH with A23V, F58S, A61V, D104E
# VL: B6 VL with T30S, D85E, H94Q
# B8: murine anti-human MASP-2 monoclonal antibody 100 (antibody, V domains shown)
# VH: DVQLVESGGGLVQPGGSRKLSCAASGFTFSNFGIHWVRQAPEKGLEWVAYISSGGSAVFYADTVKGRFTISRDNSKNTLFLQMTSLRSEDTAIYYCAKSDRYFDYWGQGTTLTVSS
# VL: B6 VL with T30S, R33S, S35R, M37I, F40Y, N49R, H54Y, D85E, V98T
# B9: murine anti-human MASP-2 monoclonal antibody 124 (antibody, V domains shown)
# VH: DVQLQESGPGLVKPSQSLSLTCTVTGYSITSDYAWNWIRQFPGNKLEWMGYISYSGRTSYNPSLKSRLSITRDTSKNQFFLQLTSVTTEDTATYYCARHYGDFWGQGTTLTVSS
# VL: DIVMTQSQKFMSTSVGDRVSVTCKASQNVDTNVAWFQQKPGQSPKPLIYSASYRYSGVPDRFTGSGSGTDFTLTISNVQSEDLANYFCQQYNSYPSTFGSGTKLEIK
# notes: as for B3
# B10: humanized anti-human MASP-2 monoclonal antibody 136-Hu (antibody, human IgG4 S228P, kappa, V domains shown)
# VH: QVQLVQSGAEVKKPGASVKVSCKASGNTFTNYWMHWIRQAPGQGLEWMGYINPNTGYTDFNQKFKDRVTLTADKSTSTAYMELSSLRSEDTAVYYCTLQLGRNFDYWGQGTTVTVSS
# VL: B1 VL with Y34S, S35T, M37I, F40Y, H54Y, A55S, Q93H, V98I, W100Y
# B11: humanized anti-human MASP-2 monoclonal antibody 100-Hu (antibody, human IgG4 S228P, kappa, V domains shown)
# VH: B8 VH with D1Q, L11V, R18L, K19R, E42G, F80Y, T84N, S88A, I93V, L112V
# VL: EIVLTQSPATLSLSPGERATLSCRASQSVSSSSYRYIHWYQQKPGQAPRLLIYYASNLESGIPARFSGSGSGTDFTLTISSLEPEDFAVYYCQHSWETPWTFGQGTKLEIKR
# Biological target: T1, human MASP-2 of human serum (human, UniProt O00187 16-686)
# T1 sequence (O00187 16-686 limits assumed): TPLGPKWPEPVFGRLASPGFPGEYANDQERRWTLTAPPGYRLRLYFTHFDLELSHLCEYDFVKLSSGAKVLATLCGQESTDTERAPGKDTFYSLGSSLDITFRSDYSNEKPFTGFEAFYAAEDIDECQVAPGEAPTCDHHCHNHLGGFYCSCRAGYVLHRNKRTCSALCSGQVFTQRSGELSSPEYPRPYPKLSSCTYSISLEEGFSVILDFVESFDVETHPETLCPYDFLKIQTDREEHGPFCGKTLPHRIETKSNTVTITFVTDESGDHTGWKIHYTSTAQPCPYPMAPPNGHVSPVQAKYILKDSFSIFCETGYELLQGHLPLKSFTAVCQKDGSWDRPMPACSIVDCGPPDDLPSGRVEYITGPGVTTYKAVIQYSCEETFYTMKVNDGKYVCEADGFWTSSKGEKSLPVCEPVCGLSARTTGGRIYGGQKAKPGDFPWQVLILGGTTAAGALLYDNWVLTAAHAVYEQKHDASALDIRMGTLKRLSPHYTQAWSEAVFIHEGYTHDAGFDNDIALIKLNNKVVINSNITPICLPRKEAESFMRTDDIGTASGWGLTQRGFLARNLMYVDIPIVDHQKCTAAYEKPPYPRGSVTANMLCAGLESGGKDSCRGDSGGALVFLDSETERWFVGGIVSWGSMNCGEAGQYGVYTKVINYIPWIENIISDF
# Assay: cell-based or functional assay
IC50 of inhibition of MASP-2-catalyzed C4 cleavage in 90% human serum [pM],IC50 of inhibition of MASP-2-mediated C3b production (4% C1q-removed human serum) [pM],Binder
3460,494,B1
3750,1140,B2

# Biological target: cynomolgus monkey MASP-2 of cynomolgus monkey serum (cynomolgus monkey)
# Assay: cell-based or functional assay
row,IC50 of inhibition of MASP-2-catalyzed C4 cleavage in 90% cynomolgus monkey serum [pM],Binder
1,168000,B2

# Biological target: T1, human MASP-2 of human serum
# Assay: cell-based or functional assay
# Remark: another data set of the same source
row,"IC50 of inhibition of MASP-2-catalyzed C4 cleavage (4% human serum, C4b ELISA) [pM]",Binder
1,275,B3
2,161,B4
3,75.7,B5
4,82.6,B6
5,77.4,B7
6,238,B8
7,150,B9

# Biological target: T1, human MASP-2 of human serum
# Assay: cell-based or functional assay
# Remark: another data set of the same source
row,C4 cleavage IC50 (4% human serum) [pM],Binder
1,59.8,B1
2,311,B10
3,214,B2
4,281,B11

# Biological target: Fc-cyno-MASP-2-CCS (human; cynomolgus monkey, UniProt P01857 119-329 = IgG part)
# Assay: ELISA, plate coated with 1 ug/mL Fc-cyno-MASP-2-CCS
# Method: The titer was tested by ELISA: an ELISA plate was coated with the Fc-hMASP-2A-CCS or Fc-hMASP-2-CCS antigen at a concentration of 1 μg/mL, 100 μL per well, and coated overnight at 4° C. The plate was washed twice with PBST (PBS containing 0.5% Tween-20) and then pat-dried. Each well was blocked with 200 μL of coating solution containing 1% BSA, blocked at room temperature for 4 hours, pat-dried, and stored in a refrigerator at −20° C. for use. During testing, 100 μL of mouse serum at different concentrations was added to each well of the ELISA plate, with two replicate wells for each concentration, and the plate was incubated at room temperature for 1.5 hours. The plate was washed three times with PBST and then pat-dried. 100 μL of HRP-labeled rabbit anti-mouse Ig antibody (purchased from Sigma) diluted with PBST by 1:10000 was added, and the plate was incubated at room temperature for 1 hour. The plate was washed three times with PBST and then pat-dried. 100 μL of chromogenic solution was added to each well (ELISA chromogenic solution A was mixed with chromogenic solution B at a volume ratio of 1:1 before use) for a chromogenic reaction, and then 100 μL of 2 M H₂SO₄ stopping solution was added to each well to terminate the reaction. The OD value of each well was immediately measured at 450 nm with a microplate reader (Molecular Device).
# Murine anti-human MASP-2 monoclonal antibodies were purified by a Protein G affinity chromatography column, and then quantified by BCA method. The EC50 of anti-human MASP-2 monoclonal antibody binding to Fc-hMASP-2A-CCS or Fc-cyno-MASP-2-CCS was tested by ELISA. The testing method can refer to Example 2. A 96-well ELISA plate was coated with 1 μg/mL of Fc-hMASP-2A-CCS or Fc-cyno-MASP-2-CCS, and then added with murine anti-human MASP-2 monoclonal antibodies at different concentrations for testing.
row,EC50 [pM],Binder
1,160,B3
2,96,B4
3,179,B9
